Laboratory results reported in article PMC2909260.

Molecular target: ILT2 (immunoglobulin-like transcript 2)/CD85j (human (endogenous in peripheral blood CD4+ T cells)) (UniProt Q8NHL6)
UniProt Q8NHL6, sequence (Q8NHL6 24-650): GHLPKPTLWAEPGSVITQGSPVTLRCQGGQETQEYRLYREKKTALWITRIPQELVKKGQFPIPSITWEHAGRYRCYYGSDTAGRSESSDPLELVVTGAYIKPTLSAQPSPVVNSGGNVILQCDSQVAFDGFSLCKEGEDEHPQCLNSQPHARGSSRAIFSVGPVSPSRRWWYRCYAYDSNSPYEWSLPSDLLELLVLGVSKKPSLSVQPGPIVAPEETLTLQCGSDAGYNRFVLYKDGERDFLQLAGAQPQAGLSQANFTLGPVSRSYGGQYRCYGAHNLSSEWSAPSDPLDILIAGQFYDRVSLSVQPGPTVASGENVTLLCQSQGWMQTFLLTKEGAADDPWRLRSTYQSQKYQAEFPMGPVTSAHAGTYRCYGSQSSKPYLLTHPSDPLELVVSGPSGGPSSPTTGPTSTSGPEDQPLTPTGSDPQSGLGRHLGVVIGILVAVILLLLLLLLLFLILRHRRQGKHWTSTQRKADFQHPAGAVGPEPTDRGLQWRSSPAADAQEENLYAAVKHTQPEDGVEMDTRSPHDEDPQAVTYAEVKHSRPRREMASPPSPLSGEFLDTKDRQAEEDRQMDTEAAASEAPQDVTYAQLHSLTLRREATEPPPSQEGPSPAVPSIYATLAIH

- % of inhibition of CXCR3 expression (flow cytometry) by sHLA-G on anti-CD3 stimulated CD4+ T cells, with blocking anti-ILT2/CD85j mAb (clone #292319, 1 ug/10^6 cells) added: 31.5%
- % of inhibition of CXCR3 expression (flow cytometry) by sHLA-G on anti-CD3 stimulated CD4+ T cells, with isotype-matched control mAb added (reference for the anti-ILT2 blocking): 47.5%
Substance: soluble HLA-G (recombinant HLA-G1/G5 protein) (from UniProt P17693 25-308; P61769 21-119) (complex)
